# Measured values from PMC5435986 (Nucleic Acids Research, 2017).
# Legend:
# Experiment in all cases: ITC
# [1] = target: KIX domain of CREB-binding protein (CBP), residues 586–672 (UniProt P45481 586-672)
# [2] = target: Y650A/A654Q/Y658V triple CBPKIX mutant (UniProt P45481 586-672, Y650A | A654Q | Y658V)
# [3] = target: F612A/D622A/R624A/K667E quadruple CBPKIX mutant (UniProt P45481 586-672, F612A | D622A | R624A | K667E)
# Sequence of F612A/D622A/R624A/K667E quadruple CBPKIX mutant (P45481 586-672 F612A/D622A/R624A/K667E): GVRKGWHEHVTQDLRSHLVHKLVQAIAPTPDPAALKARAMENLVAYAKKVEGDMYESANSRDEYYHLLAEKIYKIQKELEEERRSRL
# Sequence of KIX domain of CREB-binding protein (CBP), residues 586–672 (P45481 586-672): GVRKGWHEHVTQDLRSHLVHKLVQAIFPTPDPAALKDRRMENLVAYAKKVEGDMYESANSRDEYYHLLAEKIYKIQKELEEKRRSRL
# Sequence of Y650A/A654Q/Y658V triple CBPKIX mutant (P45481 586-672 Y650A/A654Q/Y658V): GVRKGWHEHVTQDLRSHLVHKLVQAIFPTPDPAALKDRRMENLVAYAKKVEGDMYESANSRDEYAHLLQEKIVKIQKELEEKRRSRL
Binder,Kd [1] [µM],Kd [2] [µM],fold decrease in affinity against wild-type CBPKIX [3] [fold],fold decrease in affinity against wild-type p65TA1 [1] [fold]
"PGYPNGLLSGDEDFSSIADMDFSALLSQISS (peptide, UniProt Q04206 521-551, looked up) [transactivation domain 1 (TA1) of the p65 subunit of NF-κB, residues 521–551, L523Y]",15 ± 3,13 ± 2,≥ 100,–
"PGYPNGLLSGDEDFSSIADMDASALLSQISS (peptide, UniProt Q04206 521-551, looked up) [F542A mutant of p65TA1]",–,–,–,≥ 100

# Second part, the binder after the results:
Kd [1] [µM],Kd [2] [µM],fold decrease in affinity against wild-type CBPKIX [3] [fold],fold decrease in affinity against wild-type p65TA1 [1] [fold],Binder
–,–,–,~1.5,"PGYPNGLLSGDEDFSSIADMDFSAALSQISS (peptide, UniProt Q04206 521-551, looked up) [L545A mutant of p65TA1]"
–,–,–,~1.5,"PGYPNGLLSGDEDFSSIADMDFSALASQISS (peptide, UniProt Q04206 521-551, looked up) [L546A mutant of p65TA1]"
